Results on one molecule are retold here after publication PMC8009048 (Science (New York, N.Y.), 2017).

This assay concerns the target HOXB13 DNA binding domain fragment (residues 209-283) (human, UniProt Q92826 209-283). The assay can be described thus: crystal structure.

Sequence of HOXB13 DNA binding domain fragment (residues 209-283) (Q92826 209-283): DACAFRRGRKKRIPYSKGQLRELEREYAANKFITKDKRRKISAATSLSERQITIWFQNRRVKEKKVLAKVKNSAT

B1: MEIS1 DNA binding domain fragment (residues 279-333) (domain or fragment, human, UniProt O00470 279-333, looked up)
chain: FPKVATNIMRAWLFQHLTHPYPSEEQKKQLAQDTGLTILQVNNWFINARRRIVQP
With B1, the binding result is listed as “binds”.
